Results: the supplement of paper PMC12764529
± gives the half width of the 95% confidence interval.

Experiments:
[1] = folding stability dG unfold from trypsin proteolysis; higher = more stable
How it was run: (§1)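 Digests were run with trypsin and chymotrypsin at 11 concentrations in threefold dilutions, plus a no-protease condition, on designed mini-proteins in a PA-tagged cDNA display construct. The mini-proteins were under 80 residues, had no cysteine, and were kept only when AlphaFold2 dimer inter-PAE was above 15. After sequencing, Bayesian fitting of the counts gave K50, from which unfolding free energy was derived against a sequence-predicted unfolded-state K50 and a shared folded-state K50, per protease or combined.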

[2] = folding stability dG unfold from chymotrypsin proteolysis; higher = more stable
How it was run: as §1

[3] = folding stability dG unfold (combined trypsin and chymotrypsin); higher = more stable
How it was run: as §1

| Sequence | folding stability dG unfold [1] [kJ/mol] | folding stability dG unfold [2] [kJ/mol] | folding stability dG unfold [3] [kJ/mol] |
| --- | --- | --- | --- |
| SAGGSAGGSAGMTVPPELSVTITRSPEGSLRVESPVPDRELTIPPDVPLTVSPDNVVTVASAGGSAGGSAGG [r17_49_JUSTAS] | 1.89 ± 0.13 | 3.28 ± 0.0711 | 2.74 ± 0.172 |
| SAGGSAGGSAGMTVPTSVEVSPDGTVRVRQLRWVRHGDGWRPFTFTVTLPISDDALKALKSAGGSAGGSAGG [r17_415_TrMRF] | 4.25 ± 0.159 | 4.77 ± 0.247 | 4.68 ± 0.159 |
| SAGGSAGGSAGMVIEDPSGVTTVVTFDTSVPVVTTTTLTKDPNSNNYTTTTTTTPVTVPVSAGGSAGGSAGG [r17_491_JUSTAS] | 5.62 ± 0.414 | 3.03 ± 0.46 | 4.43 ± 0.305 |
| SAGGSAGGSAGMVIERPDDKVLVILGYDPEKGKVYVAVYDPKTGEVRFKEFDNLEDEIKDSAGGSAGGSAGG [r17_300_TrMRF] | 9.05 ± 0.46 | 7.37 ± 0.335 | 7.98 ± 0.711 |
| SAGGSAGGSAGMVIEVGGKKVTIEKNEDGSLKITVTDKNGKKKEITIPGMSLEEILKALKSAGGSAGGSAGG [r11_934_TrROS_Hall] | 13.5 ± 0.318 | 10.7 ± 0.151 | 12.1 ± 0.339 |
| SAGGSAGGSAGMVINVTVTLKNSTGTITITLPVPPDLLDEVLKELKEKPDYEVVSVDTSPSAGGSAGGSAGG [r11_692_JUSTAS] | 10.3 ± 0.46 | 11.7 ± 0.669 | 11.2 ± 0.586 |
| SAGGSAGGSAGMVITKDPNGNYTVDLVLPDGTPLDSGTITLEEVEKILKERGIPLKEIFGSAGGSAGGSAGG [r11_521_JUSTAS] | -1.13 ± 1.13 | 2.27 ± 0.201 | 1.51 ± 0.502 |
| SAGGSAGGSAGMVKLRFEVKFKIKLLGEGETNEVVEVDVKVEFEVTLPPFKVRPDGSLLESAGGSAGGSAGG [r11_558_TrMRF] | 13.4 ± 1 | 18.4 ± 0.628 | 16.9 ± 0.879 |
| SAGGSAGGSAGMVKVKITAPPNASLDAIIKAVKDNGAEIISIERKGNELIIEVEIPEENASAGGSAGGSAGG [r11_672_TrMRF] | 6.44 ± 0.226 | 5.35 ± 0.192 | 5.94 ± 0.259 |
| SAGGSAGGSAGMVLRVRTKDGKVIEIKDLSEELKNMTAEQLAEELKKKFPDLKIEVEEVPSAGGSAGGSAGG [r17_42_TrROS_Hall] | 9.15 ± 0.586 | 9.47 ± 0.209 | 9.91 ± 0.628 |
| SAGGSAGGSAGNKDYPVIEVTYPFPPGAPASDIKDFAEPFGFESIEFDDNGTVKVYFYLPSAGGSAGGSAGG [r11_961_TrROS] | 3.08 ± 0.213 | 3.42 ± 0.46 | 3.45 ± 0.364 |
| SAGGSAGGSAGNKPVTVRFTIKIPLPNGKKLEIPVEVTYDSPEDRDRAEKEAEEIAREFLSAGGSAGGSAGG [r17_510_TrROS] | 6.27 ± 0.238 | 4.62 ± 0.41 | 5.69 ± 0.406 |
| SAGGSAGGSAGNMEVIEEVEFTFPGLGVKISVSIFKTDGGIVIMIDIEIPMPPEDRKKFKSAGGSAGGSAGG [r17_431_TrROS] | 3.58 ± 0.406 | 6.75 ± 0.753 | 5.23 ± 0.628 |
| SAGGSAGGSAGNPPNKPKPIIKVVPFRYRFYIPETGSVIEIDIYVFEDDTVKIKIKTYPLSAGGSAGGSAGG [r11_883_TrMRF] | 15.6 ± 1.17 | 22.5 ± 0.837 | 21.1 ± 0.92 |
| SAGGSAGGSAGNYMVRLEIEMPENGRKVEWMVPEDDPEEILEKFPWLKEHGMEVKIEVFPSAGGSAGGSAGG [r17_176_TrROS] | 0.988 ± 0.155 | 2.67 ± 0.335 | 2.08 ± 0.418 |
| SAGGSAGGSAGPALRIPFLVERPDGSPFWAEARVYEDGTVELRIYGDEPIATFTFPLDELSAGGSAGGSAGG [r11_327_TrMRF] | 6.5 ± 0.184 | 6.71 ± 0.628 | 7.01 ± 0.628 |
| SAGGSAGGSAGPFEGYRDKKGKYYLETPDGTKELDSEEELEEEKKRLLEEGIPINVKPSASAGGSAGGSAGG [r17_35_JUSTAS] | -1.29 ± 0.46 | 2.97 ± 0.586 | 1.92 ± 1.09 |
| SAGGSAGGSAGPIDPNSTRPVPADYVVIRIRGDEKPRYFVVHPEYAKEFAERHGAELYYESAGGSAGGSAGG [r17_109_TrMRF] | 0.0932 ± 0.586 | 2.43 ± 0.343 | 1.84 ± 0.318 |
| SAGGSAGGSAGPIIPPNFEVVDVFETETSYYILVKNPETGRYYVARYDPLTGKIEVFEVSSAGGSAGGSAGG [r11_896_TrMRF] | 14.5 ± 0.418 | 19.9 ± 0.272 | 18.9 ± 0.418 |
| SAGGSAGGSAGPKIPKNYKIVATYTVPPTNKKKLILYDPKTNKPLIFDTVSGKIYPFGKKSAGGSAGGSAGG [r11_268_TrMRF] | 6.66 ± 0.113 | 8.38 ± 0.46 | 7.71 ± 0.406 |
| SAGGSAGGSAGPLRPRLYRVRFTNPDGSRREFLVPEGATLEEILKRFNIPESGRVELEPVSAGGSAGGSAGG [r11_340_TrMRF] | 9.64 ± 0.138 | 8.53 ± 0.293 | 9.46 ± 0.343 |
